{"source": "the supplement of paper PMC10567573", "parents": {"B1": {"name": "TCAP (parent)", "chain": "YQRVLPLPIFTPAKMGATKEERED"}}}
{"variants_of": "B1", "experiment": "protein stability index of a GFP-peptide fusion (GPS, HEK-293T) (PSI 1-6); higher = more stable", "conditions": "c terminus: a fixed tail appended"}
{"variant": "E20R", "protein stability index": 2.48}
{"variant": "E20S", "protein stability index": 2.11}
{"variant": "E20D", "protein stability index": 2.02}
{"variant": "E20V", "protein stability index": 1.65}
{"variant": "E20I", "protein stability index": 2.04}
{"variant": "E20Q", "protein stability index": 1.73}
{"variant": "E20T", "protein stability index": 2.13}
{"variant": "E20M", "protein stability index": 2.4}
{"variant": "E20C", "protein stability index": 1.87}
{"variant": "E20Y", "protein stability index": 2.67}
{"variant": "E20P", "protein stability index": 1.92}
{"variant": "E20A", "protein stability index": 1.94}
{"variant": "E20G", "protein stability index": 2.23}
{"variant": "E20F", "protein stability index": 1.72}
{"variant": "E20W", "protein stability index": 2.2}
{"variant": "E20N", "protein stability index": 1.89}
{"variant": "E20K", "protein stability index": 1.81}
{"variant": "E20H", "protein stability index": 2.78}
{"variant": "E20L", "protein stability index": 2.13}
{"variant": "T18C", "protein stability index": 2.12}
{"variant": "T18Q", "protein stability index": 2.39}
{"variant": "T18F", "protein stability index": 1.76}
{"variant": "T18L", "protein stability index": 2.56}
{"variant": "T18R", "protein stability index": 2.4}
{"variant": "T18G", "protein stability index": 1.96}
{"variant": "T18E", "protein stability index": 3.02}
{"variant": "T18Y", "protein stability index": 1.7}
{"variant": "T18N", "protein stability index": 2.06}
{"variant": "T18V", "protein stability index": 2.38}
{"variant": "T18A", "protein stability index": 1.79}
{"variant": "T18I", "protein stability index": 1.81}
{"variant": "T18P", "protein stability index": 1.91}
{"variant": "T18M", "protein stability index": 1.52}
{"variant": "T18H", "protein stability index": 1.95}
{"variant": "T18D", "protein stability index": 2.25}
{"variant": "T18S", "protein stability index": 1.81}
{"variant": "T18K", "protein stability index": 2.25}
{"variant": "I9M", "protein stability index": 3.07}
{"variant": "I9K", "protein stability index": 3.96}
{"variant": "I9N", "protein stability index": 4.47}
{"variant": "I9Q", "protein stability index": 3.74}
{"variant": "I9G", "protein stability index": 3.79}
{"variant": "I9Y", "protein stability index": 2.58}
{"variant": "I9H", "protein stability index": 2.83}
{"variant": "I9F", "protein stability index": 2.31}
{"variant": "I9S", "protein stability index": 3.79}
{"variant": "I9E", "protein stability index": 4.51}
{"variant": "I9T", "protein stability index": 4.02}
{"variant": "I9V", "protein stability index": 2.88}
{"variant": "I9L", "protein stability index": 2.41}
{"variant": "I9R", "protein stability index": 4.16}
{"variant": "I9C", "protein stability index": 3.04}
{"variant": "I9A", "protein stability index": 3.96}
{"variant": "I9W", "protein stability index": 2.2}
{"variant": "I9D", "protein stability index": 3.63}
{"variant": "I9P", "protein stability index": 4.02}
{"variant": "G16I", "protein stability index": 1.92}
{"variant": "G16N", "protein stability index": 1.67}
{"variant": "G16T", "protein stability index": 1.95}
{"variant": "G16R", "protein stability index": 2.05}
{"variant": "G16F", "protein stability index": 2.14}
{"variant": "G16L", "protein stability index": 1.81}
{"variant": "G16Q", "protein stability index": 2.24}
{"variant": "G16A", "protein stability index": 1.9}
{"variant": "G16K", "protein stability index": 1.7}
{"variant": "G16P", "protein stability index": 1.96}
{"variant": "G16M", "protein stability index": 1.56}
{"variant": "G16W", "protein stability index": 1.8}
{"variant": "G16H", "protein stability index": 1.34}
{"variant": "G16S", "protein stability index": 2.16}
{"variant": "G16C", "protein stability index": 2.06}
{"variant": "G16V", "protein stability index": 2.39}
{"variant": "G16Y", "protein stability index": 2.07}
{"variant": "G16D", "protein stability index": 1.92}
{"variant": "G16E", "protein stability index": 2.16}
{"variant": "E21G", "protein stability index": 1.75}
{"variant": "E21M", "protein stability index": 1.93}
{"variant": "E21K", "protein stability index": 2.1}
{"variant": "E21Q", "protein stability index": 1.98}
{"variant": "E21R", "protein stability index": 1.97}
{"variant": "E21H", "protein stability index": 2.22}
{"variant": "E21V", "protein stability index": 2.35}
{"variant": "E21T", "protein stability index": 1.92}
{"variant": "E21I", "protein stability index": 2.2}
{"variant": "E21W", "protein stability index": 2.41}
{"variant": "E21C", "protein stability index": 2.28}
{"variant": "E21N", "protein stability index": 1.81}
{"variant": "E21D", "protein stability index": 2}
{"variant": "E21A", "protein stability index": 1.91}
{"variant": "E21Y", "protein stability index": 2.14}
{"variant": "E21F", "protein stability index": 1.95}
{"variant": "E21S", "protein stability index": 1.91}
{"variant": "E21P", "protein stability index": 2.54}
{"variant": "E21L", "protein stability index": 2.06}
{"variant": "R22L", "protein stability index": 1.79}
{"variant": "R22W", "protein stability index": 1.71}
{"variant": "R22C", "protein stability index": 2.04}
{"variant": "R22P", "protein stability index": 1.87}
{"variant": "R22E", "protein stability index": 2.34}
{"variant": "R22F", "protein stability index": 1.85}
{"variant": "R22H", "protein stability index": 1.95}
{"variant": "R22D", "protein stability index": 2.18}
{"variant": "R22M", "protein stability index": 1.9}
{"variant": "R22A", "protein stability index": 1.9}
{"variant": "R22I", "protein stability index": 1.93}
{"variant": "R22K", "protein stability index": 2.09}
{"variant": "R22G", "protein stability index": 2.47}
{"variant": "R22N", "protein stability index": 2.51}
{"variant": "R22T", "protein stability index": 1.86}
{"variant": "R22Y", "protein stability index": 1.63}
{"variant": "R22S", "protein stability index": 1.76}
{"variant": "R22V", "protein stability index": 2.2}
{"variant": "R22Q", "protein stability index": 1.67}
{"variant": "F10I", "protein stability index": 3.72}
{"variant": "F10A", "protein stability index": 4.3}
{"variant": "F10K", "protein stability index": 4.08}
{"variant": "F10L", "protein stability index": 3.73}
{"variant": "F10P", "protein stability index": 4.14}
{"variant": "F10C", "protein stability index": 3.63}
{"variant": "F10D", "protein stability index": 4.32}
{"variant": "F10E", "protein stability index": 4.33}
{"variant": "F10S", "protein stability index": 4.06}
{"variant": "F10R", "protein stability index": 4.18}
{"variant": "F10Y", "protein stability index": 2.48}
{"variant": "F10M", "protein stability index": 3.71}
{"variant": "F10V", "protein stability index": 3.65}
{"variant": "F10H", "protein stability index": 3.94}
{"variant": "F10N", "protein stability index": 4.05}
{"variant": "F10T", "protein stability index": 4.04}
{"variant": "F10G", "protein stability index": 4.44}
{"variant": "F10Q", "protein stability index": 4.5}
{"variant": "L5T", "protein stability index": 1.98}
{"variant": "L5W", "protein stability index": 2.81}
{"variant": "L5Y", "protein stability index": 2.37}
{"variant": "L5R", "protein stability index": 2.7}
{"variant": "L5V", "protein stability index": 1.96}
{"variant": "L5S", "protein stability index": 1.97}
{"variant": "L7C", "protein stability index": 1.42}
{"variant": "L7D", "protein stability index": 2.1}
{"variant": "L7K", "protein stability index": 3.33}
{"variant": "L7T", "protein stability index": 1.73}
{"variant": "L7I", "protein stability index": 2.19}
{"variant": "L7M", "protein stability index": 2.43}
{"variant": "L7Q", "protein stability index": 2.56}
{"variant": "L7N", "protein stability index": 1.54}
{"variant": "L7F", "protein stability index": 1.76}
{"variant": "L7R", "protein stability index": 3.08}
{"variant": "L7W", "protein stability index": 2.86}
{"variant": "L7E", "protein stability index": 2.61}
{"variant": "L7A", "protein stability index": 1.75}
{"variant": "L7H", "protein stability index": 4.72}
{"variant": "L7S", "protein stability index": 2.31}
{"variant": "L7V", "protein stability index": 2.4}
{"variant": "L7P", "protein stability index": 2.59}
{"variant": "L7G", "protein stability index": 2.46}
{"variant": "L7Y", "protein stability index": 2.71}
{"variant": "P6G", "protein stability index": 1.9}
{"variant": "P6C", "protein stability index": 1.72}
{"variant": "P6S", "protein stability index": 1.82}
{"variant": "P6A", "protein stability index": 2.09}
{"variant": "P6Y", "protein stability index": 2.35}
{"variant": "P6F", "protein stability index": 2.25}
{"variant": "P6K", "protein stability index": 1.89}
{"variant": "P6W", "protein stability index": 1.56}
{"variant": "P6Q", "protein stability index": 1.91}
{"variant": "P6M", "protein stability index": 1.65}
{"variant": "P6V", "protein stability index": 2.17}
